We go through one molecule from PMC8319299 (2020).

Where no end group is shown, it is not given here. [ ]: non-standard residue; d: D form. Lys(Me3) = C[N+](C)(C)CCCC[C@H](N)C(=O)O

This experiment deals with EED (amino acids 40-441) (human, UniProt O75530-1 40-441). The experiment can be described thus: FP.
EED (amino acids 40-441), sequence (O75530 40-441): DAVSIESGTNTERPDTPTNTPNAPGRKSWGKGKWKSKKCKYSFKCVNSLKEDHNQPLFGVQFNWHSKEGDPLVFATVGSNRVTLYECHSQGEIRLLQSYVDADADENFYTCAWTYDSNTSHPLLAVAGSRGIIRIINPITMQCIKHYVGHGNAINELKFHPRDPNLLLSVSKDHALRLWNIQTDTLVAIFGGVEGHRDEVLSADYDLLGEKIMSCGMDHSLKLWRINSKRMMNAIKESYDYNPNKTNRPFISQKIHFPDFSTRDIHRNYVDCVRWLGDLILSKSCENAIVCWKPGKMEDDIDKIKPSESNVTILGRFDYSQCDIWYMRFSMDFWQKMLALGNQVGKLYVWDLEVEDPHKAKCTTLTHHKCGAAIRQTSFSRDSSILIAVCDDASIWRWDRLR

What is called Kd is the free concentration of one partner at which half of the binding sites on the other are occupied at equilibrium, for simple one-to-one binding. In turn, LK[Lys(Me3)]APG [PALI1-K1241me3 peptide with the F1242A mutation] yielded a Kd of 223 µM.
